# Reference: paper PMC3720892, “Functional Analysis of the Superfamily 1 DNA Helicases Encoded by Mycoplasma pneumoniae and Mycoplasma genitalium”
# B1: oligonucleotide 1 (ssDNA)
# DNA: CAAAGTAAGAGCTTCTCGAGCTGCGCAAGGATAGGTCGAATTTTCTCATTTT
# B2: substrate b (dsDNA)
# DNA 1: B1 DNA
# DNA 2: ATCGGATCCATGAATGAACAACAAAAAATGAGAAAATTCGACCTATCCTTGCGCAGCTCGAGAAGCTCTTACTTTG
# B3: substrate a (dsDNA)
# DNA 1: B1 DNA
# DNA 2: AAAATGAGAAAATTCGACCTATCCTTGCGCAGCTCGAGAAGCTCTTACTTTGATCGGATCCATGAATGAACAACAA
# B4: substrate c (dsDNA)
# DNA 1: B1 DNA
# DNA 2: AAAATGAGAAAATTCGACCTATCCTTGCGCAGCTCGAGAAGCTCTTACTTTG
# Assays:
# PcrA Mge [1] = molecular target: T1, PcrA Mge (Mycoplasma genitalium strain G37, UniProt P47486 1-703); assay: EMSA; 22-200 nM protein; 20 mM Tris-HCl pH 7.5, 1 mM DTT, 50 ng/ul BSA, 8 nM DNA, 15 min at room temperature, no Mg2+ or ATP listed; 6% PAGE in 1x TBE; conditions: protein: recombinant; tags: N-terminal MBP; label: 5' 6-FAM
# T1 sequence: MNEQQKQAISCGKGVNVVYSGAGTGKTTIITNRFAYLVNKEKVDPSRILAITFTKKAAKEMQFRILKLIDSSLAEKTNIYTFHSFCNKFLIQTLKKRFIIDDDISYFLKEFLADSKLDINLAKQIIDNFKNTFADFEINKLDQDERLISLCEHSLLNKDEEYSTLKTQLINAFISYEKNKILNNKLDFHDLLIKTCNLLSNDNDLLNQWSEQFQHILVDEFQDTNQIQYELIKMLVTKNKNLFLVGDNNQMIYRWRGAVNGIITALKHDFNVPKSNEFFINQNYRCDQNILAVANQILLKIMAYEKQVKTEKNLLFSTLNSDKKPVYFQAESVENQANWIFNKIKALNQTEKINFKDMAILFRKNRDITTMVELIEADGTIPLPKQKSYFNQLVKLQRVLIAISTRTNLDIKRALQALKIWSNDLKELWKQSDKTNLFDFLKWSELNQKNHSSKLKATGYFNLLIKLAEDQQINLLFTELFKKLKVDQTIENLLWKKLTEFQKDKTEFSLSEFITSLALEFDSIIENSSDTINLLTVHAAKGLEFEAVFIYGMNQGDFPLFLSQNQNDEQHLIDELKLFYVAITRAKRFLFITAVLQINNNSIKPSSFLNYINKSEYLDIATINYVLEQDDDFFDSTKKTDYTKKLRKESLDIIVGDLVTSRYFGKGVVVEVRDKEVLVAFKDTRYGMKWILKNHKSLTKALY
# PcrA Mpn [2] = molecular target: T2, PcrA Mpn (Mycoplasma pneumoniae strain M129, UniProt P75437 1-715); assay: as above; conditions: protein: recombinant; tags: N-terminal MBP; label: 5' 6-FAM
# T2 sequence: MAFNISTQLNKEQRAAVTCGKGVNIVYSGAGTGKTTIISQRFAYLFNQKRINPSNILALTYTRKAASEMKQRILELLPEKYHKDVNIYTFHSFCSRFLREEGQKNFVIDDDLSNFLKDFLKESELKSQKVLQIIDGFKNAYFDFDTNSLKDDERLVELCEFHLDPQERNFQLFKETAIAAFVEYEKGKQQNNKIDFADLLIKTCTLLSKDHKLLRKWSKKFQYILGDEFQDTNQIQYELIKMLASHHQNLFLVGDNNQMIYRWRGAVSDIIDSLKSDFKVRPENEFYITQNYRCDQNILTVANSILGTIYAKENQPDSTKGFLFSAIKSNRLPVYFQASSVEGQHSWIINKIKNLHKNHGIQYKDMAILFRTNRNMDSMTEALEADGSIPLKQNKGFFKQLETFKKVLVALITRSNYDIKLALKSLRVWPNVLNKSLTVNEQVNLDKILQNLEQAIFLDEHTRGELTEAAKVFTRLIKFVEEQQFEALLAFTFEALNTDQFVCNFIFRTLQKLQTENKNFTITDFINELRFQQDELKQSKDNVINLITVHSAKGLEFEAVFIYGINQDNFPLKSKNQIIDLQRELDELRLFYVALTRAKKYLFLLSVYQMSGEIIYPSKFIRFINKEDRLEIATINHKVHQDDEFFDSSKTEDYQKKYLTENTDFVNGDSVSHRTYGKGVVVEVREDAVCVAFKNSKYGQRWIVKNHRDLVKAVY
# PcrAs M129 = molecular target: T3, PcrAs M129 (Mycoplasma pneumoniae strain M129, UniProt P75438 1-529); assay: EMSA; up to 200 nM protein; 20 mM Tris-HCl pH 7.5, 1 mM DTT, 50 ng/ul BSA, 8 nM DNA, 15 min at room temperature, no Mg2+ or ATP listed; 6% PAGE in 1x TBE; conditions: protein: recombinant, tags: N-terminal MBP
# T3 sequence: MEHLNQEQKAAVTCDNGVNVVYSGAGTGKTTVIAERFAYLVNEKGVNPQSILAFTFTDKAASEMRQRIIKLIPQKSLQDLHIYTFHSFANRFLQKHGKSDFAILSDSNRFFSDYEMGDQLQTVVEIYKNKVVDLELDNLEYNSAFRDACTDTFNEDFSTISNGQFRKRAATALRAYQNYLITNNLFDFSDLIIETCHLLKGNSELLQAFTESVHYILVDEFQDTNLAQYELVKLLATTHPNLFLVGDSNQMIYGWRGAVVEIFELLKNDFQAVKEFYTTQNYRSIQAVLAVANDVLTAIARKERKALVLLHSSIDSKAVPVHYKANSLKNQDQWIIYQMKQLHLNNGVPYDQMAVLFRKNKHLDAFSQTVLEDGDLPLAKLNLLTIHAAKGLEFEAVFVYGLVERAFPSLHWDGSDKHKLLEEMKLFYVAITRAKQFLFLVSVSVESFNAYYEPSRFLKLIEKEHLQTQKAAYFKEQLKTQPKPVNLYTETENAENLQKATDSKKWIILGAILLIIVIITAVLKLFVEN
# PcrA Mge [3] = molecular target: T1, PcrA Mge; assay: EMSA; 22-200 nM protein; discrete complex IV; 20 mM Tris-HCl pH 7.5, 1 mM DTT, 50 ng/ul BSA, 8 nM DNA, 15 min at room temperature, no Mg2+ or ATP listed; 6% PAGE in 1x TBE; conditions: protein: recombinant; tags: N-terminal MBP; label: 5' 6-FAM on one strand; 5' overhang 24 nt
# PcrA Mpn [4] = molecular target: T2, PcrA Mpn; assay: EMSA; 22-200 nM protein; discrete complex III; 20 mM Tris-HCl pH 7.5, 1 mM DTT, 50 ng/ul BSA, 8 nM DNA, 15 min at room temperature, no Mg2+ or ATP listed; 6% PAGE in 1x TBE; conditions: protein: recombinant; tags: N-terminal MBP; label: 5' 6-FAM on one strand; 5' overhang 24 nt
# PcrA Mge [5] = molecular target: T1, PcrA Mge; assay: EMSA; 22-200 nM protein; most complexes did not enter gel; 20 mM Tris-HCl pH 7.5, 1 mM DTT, 50 ng/ul BSA, 8 nM DNA, 15 min at room temperature, no Mg2+ or ATP listed; 6% PAGE in 1x TBE; conditions: protein: recombinant; tags: N-terminal MBP; label: 5' 6-FAM on one strand; 3' overhang 24 nt
# PcrA Mpn [6] = molecular target: T2, PcrA Mpn; assay: as above; conditions: protein: recombinant; tags: N-terminal MBP; label: 5' 6-FAM on one strand; 3' overhang 24 nt
binder,measurement,setting,value
B1,binding result,PcrA Mge [1],binds
same,binding result,PcrA Mpn [2],binds
same,binding result,PcrAs M129; label: 5' 6-FAM,no binding
B2,binding result,"PcrAs M129; label: 5' 6-FAM on one strand, 5' overhang 24 nt",no binding
same,binding result,PcrA Mge [3],binds
same,binding result,PcrA Mpn [4],binds
B3,binding result,"PcrAs M129; label: 5' 6-FAM on one strand, 3' overhang 24 nt",no binding
same,binding result,PcrA Mge [5],binds
same,binding result,PcrA Mpn [6],binds
B4,binding result,"PcrAs M129; label: 5' 6-FAM on one strand, blunt",no binding
